Substrate in the series: O=[N+]([O-])c1ccc(O[C@@H]2O[C@H](CO)[C@@H](O)[C@H](O)[C@H]2O)cc1
Kind of series: purified protein. The series is classed as biochemical, Bacillus tequilensis. The conditions noted are these: pH 5.0 acetate buffer, 50 °C, pNPG 2–20 mM, no metal or NAD cofactor mentioned.

B1: Bteqβgluc (pPIC-Bteqβgluc) (Bacillus tequilensis) (protein)
chain: MTKGLKIVTIGGGSSYTPVLVEGFIKRYDELPVRELWLVDIPEGEEKLNIVGTLAKRMVEKAGVPIDIHLTPDRRKALKDADFVTTQFRVGLLQARAKDERIPLKYGVIGQETNGPGGLFKGLRTIPVILEIAKDIEELCPNAWLVNFTNPAGMVTEALLRYSNLKKVVGLCNVPIGIKMGVAKALDVDVDRVEVQFAGLNHMVFGLDVFLDGVSVKEQVIEAMGDPKNAMTMKNTSGAEWEPDFLKALNVIPCGYHRYYFKTKEMLEHELEASQTEGTRAEVVQKVEKELFELYKDPNLAIKPPQLEKRGGAYYSDAACNLISSIYNDKHDIQPVNTINNGAIASIPDDSAVEVNCVMTKTGPKPIAVGDLPVSVRGLVQQIKSFERVAAEAAVTGDYQTALLAMTTNPLVPSDAVAKQILDDMLEAHKAYLPQFFNKIEA
notes: full-length ORF (1,329 bp; 443 residues) in pPIC9K, secreted from Pichia pastoris GS115, purified by anion exchange; no His tag mentioned
For the protein B1, the Km is 7.43 mM and the kcat/Km amounted to 1020 M⁻¹ s⁻¹.

B2: Bteqβgluc (pET-Bteqβgluc) (Bacillus tequilensis) (protein)
chain: MTKGLKIVTIGGGSSYTPVLVEGFIKRYDELPVRELWLVDIPEGEEKLNIVGTLAKRMVEKAGVPIDIHLTPDRRKALKDADFVTTQFRVGLLQARAKDERIPLKYGVIGQETNGPGGLFKGLRTIPVILEIAKDIEELCPNAWLVNFTNPAGMVTEALLRYSNLKKVVGLCNVPIGIKMGVAKALDVDVDRVEVQFAGLNHMVFGLDVFLDGVSVKEQVIEAMGDPKNAMTMKNTSGAEWEPDFLKALNVIPCGYHRYYFKTKEMLEHELEASQTEGTRAEVVQKVEKELFELYKDPNLAIKPPQLEKRGGAYYSDAACNLISSIYNDKHDIQPVNTINNGAIASIPDDSAVEVNCVMTKTGPKPIAVGDLPVSVRGLVQQIKSFERVAAEAAVTGDYQTALLAMTTNPLVPSDAVAKQILDDMLEAHKAYLPQFFNKIEA
notes: full-length ORF (1,329 bp; 443 residues) in pET-30a(+), His-tagged, E. coli BL21(DE3) pLysS
As for B2, the Michaelis-Menten constant (Km) was 8.43 mM and the kcat/Km was 887 M⁻¹ s⁻¹.

For orientation: Km means the concentration of substrate that gives half-maximal velocity. By kcat/Km is commonly meant the turnover number divided by the Michaelis constant.

The values above are taken from PMC7115751, “Identification and functional characterization of a β-glucosidase from Bacillus tequelensis BD69 expressed in bacterial and yeast heterologous systems” (PeerJ, 2020).
